Laboratory results taken from patent US20250011410A1 (INVETX, published 2025).
Where “and” joins values, the source holds several entries; their conditions need not be identical. Equal entries are not always repeated.

B12: canine NGF tagged at the C-terminus with the Flag tag (ligand)
chain: SSSHPVFHRGEFSVCDSVSVWVGDKTTATDIKGKEVMVLGEVNINNSVFKQYFFETKCRDPTPVDSGCRGIDSKHWNSYCTTTHTFVKALTMDGKQAAWRFIRIDTACVCVLSRKAGRRADYKDDDDK
notes: Baculovirus expression; also called feline NGF (processed form identical)

Legend:
[1] = target: B12; experiment: SPR, antibody captured on goat anti-cat IgG, single cycle kinetics, NGF analyte
[2] = target: T1, canine NGF tagged at the C-terminus with the Flag tag (canine, UniProt A0A8I3PYI3 122-241); experiment: SPR, IgG amine-coupled to HC30M chip, NGF analyte
T1 construct: mature; Expressed with baculovirus technology; also called feline NGF (processed form identical)

[3] = target: T2, canine NGF tagged at the C-terminus with the Flag tag (canine, UniProt A0A8I3PYI3 122-241); experiment: SPR, Biacore T200; antibody captured on anti-feline CM5 chip, NGF as analyte; 1:1 model
T2 construct: mature; 'mature' rests on the words 'processed form'; also called feline NGF (processed form identical)

[4] = target: B12; experiment: SPR; antibody amine-coupled to HC30M sensor chip, canine NGF-Flag as analyte
[5] = target: canine NGF with a strep-tag at the C-terminus (canine, UniProt A0A8I3PYI3 122-241); experiment: cell-based or functional assay
[6] = target: T3, NT-3 (R&D Systems, 267-N3-025/CF) (UniProt P20783 139-257); experiment: multiplexed bead assay, flow cytometry
T3 sequence (looked up): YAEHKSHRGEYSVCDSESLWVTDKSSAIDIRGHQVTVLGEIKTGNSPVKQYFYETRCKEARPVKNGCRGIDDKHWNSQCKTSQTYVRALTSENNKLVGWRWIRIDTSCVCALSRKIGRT

[7] = target: T4, human NGF (R&D Systems, 256-GF-100/CF) (human, UniProt P01138 122-241); experiment: multiplexed bead assay, flow cytometry
T4 construct: Conjugated to beads or fluorescently labelled; also called human NGF antigen

[8] = target: T5, BDNF (R&D Systems, 248-BDB-050/CF) (UniProt P23560 129-247); experiment: multiplexed bead assay, flow cytometry
T5 sequence (looked up): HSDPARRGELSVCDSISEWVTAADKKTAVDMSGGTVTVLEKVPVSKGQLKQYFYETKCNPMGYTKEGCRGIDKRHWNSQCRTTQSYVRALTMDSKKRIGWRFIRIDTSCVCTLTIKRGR

[9] = target: B12; experiment: SPR, antibody amine-coupled, NGF analyte
[10] = target: B12; experiment: SPR Biacore T200, antibody captured on protein A, NGF analyte; fitted KD, one-to-one model
[11] = target: B12; experiment: SPR Biacore T200, antibody captured on protein A, NGF analyte
[12] = target: T6, canine TrkA-Fc (canine; human, UniProt A0A8I3P078 33-423); experiment: SPR, receptor-Fc captured on anti-human Fc chip
T6 construct: extracellular domain; also called Trk-Fc; canine TrkA in a dimer format; not shown: human IgG1 Fc, UniProtKB P01857

[13] = target: T6, canine TrkA-Fc; experiment: SPR, TrkA-Fc captured on anti-human Fc chip, NGF analyte
[14] = target: T7, canine p75-Fc (canine; human); experiment: SPR, p75-Fc captured on anti-human Fc chip, NGF analyte
T7 construct: extracellular domain; also called canine p75 in a dimer format; not shown: human IgG1 Fc, UniProtKB P01857

T6 sequence (A0A8I3P078 entry or part of it): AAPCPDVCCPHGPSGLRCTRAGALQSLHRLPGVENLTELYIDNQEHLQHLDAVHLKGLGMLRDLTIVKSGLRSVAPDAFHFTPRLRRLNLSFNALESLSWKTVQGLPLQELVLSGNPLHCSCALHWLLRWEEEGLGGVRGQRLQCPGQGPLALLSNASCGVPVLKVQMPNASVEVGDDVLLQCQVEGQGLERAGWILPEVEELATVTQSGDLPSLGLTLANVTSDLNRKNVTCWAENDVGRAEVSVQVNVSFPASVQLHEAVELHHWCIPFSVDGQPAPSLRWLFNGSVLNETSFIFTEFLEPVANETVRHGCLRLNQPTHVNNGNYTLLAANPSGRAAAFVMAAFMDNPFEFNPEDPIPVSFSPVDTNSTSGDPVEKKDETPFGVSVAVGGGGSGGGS
T4 sequence (P01138 122-241 limits assumed): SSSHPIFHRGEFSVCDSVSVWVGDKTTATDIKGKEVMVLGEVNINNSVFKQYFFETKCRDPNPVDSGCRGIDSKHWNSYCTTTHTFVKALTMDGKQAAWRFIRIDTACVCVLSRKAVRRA

B1: felinized clone 101 (antibody, V domains shown)
VH: DVQLVESGGDLVKPGGSLRLTCVASGLSLTSSSMSWVRQAPGKGLQWVSTIYSNGGTYYTDSVKGRFTISKDNAENTLYLQMNNLKTEDTATYYCASIYYYDADYLHWYFDFWGQGALVTVSS
VL: EIQMTQSPTSLSASVGDRVTITCRASEGISNNLSWYQQTPGKAPKLLIYATSNLHSGVPSRFSGSGSGTDFTLTISSLQPEDFATYYCQQGYKWPLTFGGGTKLEIT
Kd [1]: 7.8 nM
koff [1]: 0.003 s⁻¹
kon [1]: 380000 M⁻¹ s⁻¹

B2: felinized clone 101 (IgG) (antibody, V domains shown)
VH: DVQLVESGGDLVKPGGSLRLTCVASGLSLTSSSMSWVRQAPGKGLQWVSTIYSNGGTYYTDSVKGRFTISKDNAENTLYLQMNNLKTEDTATYYCASIYYYDADYLHWYFDFWGQGALVTVSS
VL: EIQMTQSPTSLSASVGDRVTITCRASEGISNNLSWYQQTPGKAPKLLIYATSNLHSGVPSRFSGSGSGTDFTLTISSLQPEDFATYYCQQGYKWPLTFGGGTKLEIT
Kd [2]: 2.1 nM
koff [2]: 0.00022 s⁻¹
kon [2]: 110000 M⁻¹ s⁻¹

B3: SC-184_76 (antibody, IgG1a, V domains shown)
VH: DVQLVESGGDLVKPGGSLRLTCVASGLSLTSDSMSWVRQAPGKGLQWVSTLWSNGGTYYTDSVKGRFTISKDNAENTLYLQMNNLKTEDTATYYCASIYYYEADYLHWYFDFWGQGALVTVSS
VL: EIQMTQSPTSLSASVGDRVTITCRASEGIANNLSWYQQTPGKAPKLLIYATSNLHSGVPSRFSGSGSGTDFTLTISSLQPEDFATYYCQQGFKWPLTFGGGTKLEIT
Kd [2]: 0.25 nM
koff [2]: 6.9e-05 s⁻¹
kon [2]: 270000 M⁻¹ s⁻¹

B4: SC-184_110 (antibody, IgG1a, V domains shown)
VH: DVQLVESGGDLVKPGGSLRLTCVASGLSLTSASMSWVRQAPGKGLQWVSTIYSNGGTYYTDSVKGRFTISKDNAENTLYLQMNNLKTEDTATYYCASIYYYEAEYLHWYFDFWGQGALVTVSS
VL: EIQMTQSPTSLSASVGDRVTITCRASEGISKNLSWYQQTPGKAPKLLIYATDNLHSGVPSRFSGSGSGTDFTLTISSLQPEDFATYYCQQGWKWPLTFGGGTKLEIT
notes: also called SC-110
Kd [3]: 0.773 nM
koff [3]: 0.00038 s⁻¹
kon [3]: 492000 M⁻¹ s⁻¹

B5: SC-184_102 (antibody, IgG1a, V domains shown)
VH: DVQLVESGGDLVKPGGSLRLTCVASGLSLTSNSMSWVRQAPGKGLQWVSTIWSNGGTYYTDSVKGRFTISKDNAENTLYLQMNNLKTEDTATYYCASIYYYEAEYLHWYFDFWGQGALVTVSS
VL: EIQMTQSPTSLSASVGDRVTITCRASKGISNNLSWYQQTPGKAPKLLIYAQSNLHSGVPSRFSGSGSGTDFTLTISSLQPEDFATYYCQQGYKWPLTFGGGTKLEIT
kon [2]: 210000 M⁻¹ s⁻¹

B6: SC-184_110-Arg (antibody, V domains shown)
VH: DVQLVESGGDLVKPGGSLRLTCVASGLSLTSASMSWVRQAPGKGLQWVSTIYSNRGTYYTDSVKGRFTISKDNAENTLYLQMNNLKTEDTATYYCASIYYYEAEYLHWYFDFWGQGALVTVSS
VL: EIQMTQSPTSLSASVGDRVTITCRASEGISKNLSWYQQTPGKAPKLLIYATDNLHSGVPSRFSGSGSGTDFTLTISSLQPEDFATYYCQQGWKWPLTFGGGTKLEIT
notes: SC-184_110 containing the G55R mutation in VH; feline antibody captured on an anti-feline chip
Kd [3]: 0.142 nM
koff [3]: 5.48e-05 s⁻¹
kon [3]: 387000 M⁻¹ s⁻¹

B7: SC-184_102-Arg (antibody, V domains shown)
VH: DVQLVESGGDLVKPGGSLRLTCVASGLSLTSNSMSWVRQAPGKGLQWVSTIWSNRGTYYTDSVKGRFTISKDNAENTLYLQMNNLKTEDTATYYCASIYYYEAEYLHWYFDFWGQGALVTVSS
VL: EIQMTQSPTSLSASVGDRVTITCRASKGISNNLSWYQQTPGKAPKLLIYAQSNLHSGVPSRFSGSGSGTDFTLTISSLQPEDFATYYCQQGYKWPLTFGGGTKLEIT
notes: SC-184_102 containing the G55R mutation in VH; feline antibody captured on an anti-feline chip
Kd [3]: 0.129 nM
koff [3]: 4.43e-05 s⁻¹
kon [3]: 343000 M⁻¹ s⁻¹

B8: SC-184_102 (antibody, IgG1a, V domains shown)
VH: DVQLVESGGDLVKPGGSLRLTCVASGLSLTSNSMSWVRQAPGKGLQWVSTIWSNGGTYYTDSVKGRFTISKDNAENTLYLQMNNLKTEDTATYYCASIYYYEAEYLHWYFDFWGQGALVTVSS
VL: EIQMTQSPTSLSASVGDRVTITCRASKGISNNLSWYQQTPGKAPKLLIYAQSNLHSGVPSRFSGSGSGTDFTLTISSLQPEDFATYYCQQGYKWPLTFGGGTKLEIT
notes: also called SC-102
Kd [3]: 0.42 nM
koff [3]: 0.000198 s⁻¹
kon [3]: 471000 M⁻¹ s⁻¹

B9: SC-184_110 (antibody, IgG1a, V domains shown)
VH: DVQLVESGGDLVKPGGSLRLTCVASGLSLTSASMSWVRQAPGKGLQWVSTIYSNGGTYYTDSVKGRFTISKDNAENTLYLQMNNLKTEDTATYYCASIYYYEAEYLHWYFDFWGQGALVTVSS
VL: EIQMTQSPTSLSASVGDRVTITCRASEGISKNLSWYQQTPGKAPKLLIYATDNLHSGVPSRFSGSGSGTDFTLTISSLQPEDFATYYCQQGWKWPLTFGGGTKLEIT
Kd [2]: 0.36 nM
koff [2]: 3.6e-05 s⁻¹
kon [2]: 160000 M⁻¹ s⁻¹

B10: rat antibody 2166 (antibody, V domains shown)
VH: QVQLKESGPGLVQPSQTLSLTCTVSGLSLTSNSVSWIRQPPGKGLEWMGVIWSNGGTDYNSAIESRLSINRDTSKSQVFLKMNSLQPEDTAMYFCASIYYYDADYLHWYFDFWGPGTMVTVSS
VL: DIQMTQSPASLSASLGETVSIECLASEGISNSLAWYQLKPGKSPQFLIYATSSLQDGVPSRFSGSGSGTQYSLKISGMQPEDEGVYYCQQGYKFPLTFGSGTKLKIK
Kd [4]: 0.042 nM
IC50 (read off the curve): % inhibition of canine NGF-driven TF-1 cell proliferation [5]: ~0.03 nM
binding result [6]: no binding
fold over background (MFI normalized over isotype control) [7]: > 59 fold
binding result [8]: no binding
Kd [9]: ≤ 0.0042 nM
koff [9]: ≤ 1e-05 s⁻¹
kon [9]: 2.38e+06 M⁻¹ s⁻¹

B11: canine 2166 chimeric antibody (antibody, V domains shown)
VH: QVQLKESGPGLVQPSQTLSLTCTVSGLSLTSNSVSWIRQPPGKGLEWMGVIWSNGGTDYNSAIESRLSINRDTSKSQVFLKMNSLQPEDTAMYFCASIYYYDADYLHWYFDFWGPGTMVTVSS
VL: DIQMTQSPASLSASLGETVSIECLASEGISNSLAWYQLKPGKSPQFLIYATSSLQDGVPSRFSGSGSGTQYSLKISGMQPEDEGVYYCQQGYKFPLTFGSGTKLKIKR
Kd [10]: ≤ 0.05 nM
koff [11]: < 1e-05 s⁻¹
kon [11]: 1.2e+07 M⁻¹ s⁻¹
binding result [12]: no binding (tested: 12.5 nM to 100 nM)

B12
Kd [13]: 0.013 nM and 0.0066 nM
koff [13]: 0.00017 s⁻¹ and 0.00016 s⁻¹
kon [13]: 1.3e+07 M⁻¹ s⁻¹ and 2.4e+07 M⁻¹ s⁻¹
Kd [14]: 3.7 nM and 2.7 nM
